Test results: ChEMBL document CHEMBL2074526, “ATP-dependent transport of amphiphilic cations across the hepatocyte canalicular membrane mediated by mdr1 P-glycoprotein” (FEBS Lett, 1994)

Assays:
Format in all cases: functional, cell membranes
[1] = system: C=C[C@H]1CN2CC[C@H]1C[C@@H]2[C@@H](O)c1ccnc2ccc(OC)cc12; experiment: (§1) TP_TRANSPORTER: uptake in rat canalicular membrane vesicle
[2] = system: C=CC1C[N+]2(CCCCC)CCC1CC2C(O)c1ccnc2ccc(OC)cc12; experiment: TP_TRANSPORTER: uptake in rat canalicular plasma membrane vesicles; conditions: Canalicular plasma membrane vesicle
[3] = target: Multidrug resistance protein 1a (Rattus norvegicus) (UniProt Q6PSM0); experiment: as §1

## Multidrug resistance protein 1a (Rattus norvegicus), Q6PSM0
[1]
  Km: 5 µM
[2]
  Km: 0.4 µM

## CCC1C[N+]2(CCCC3(C)N=N3)C3CC45c6ccccc6N(C)C4C2CC1C3C5O (stereo not drawn)
[3]
  Activity: substrate [+]
